System: Escherichia coli TOP10
Assay: shrunken log2 fold change of peptide-encoding DNA abundance (4.5 h post-induction vs induction); higher = less antimicrobial activity (less host growth inhibition)
Conditions: time post-induction: 4.5 h; library: site-saturation at positions 5, 18, 19, 20
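Also: peptides expressed intracellularly from a pBAD plasmid library in pooled LB shake-flask culture, induced with 0.3% L-arabinose, DNA abundance read by NGS, three biological replicates, DESeq2 with apeglm shrinkage.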

Sequence | shrunken log2 fold change
RRIRVRPPRLPRPRPRPGPQPRP | 0.245
RRIRARPPRLPRPRPRPMRWPRP | 0.618
RRIRWRPPRLPRPRPRPFWQPRP | -0.00499
RRIRYRPPRLPRPRPRPDVGPRP | -0.273
RRIRERPPRLPRPRPRPDRGPRP | 0.0208
RRIRRRPPRLPRPRPRPIFHPRP | 0.129
RRIRRRPPRLPRPRPRPLMFPRP | 0.0336
RRIRYRPPRLPRPRPRPVETPRP | -0.0299
RRIRPRPPRLPRPRPRPSDAPRP | -0.0621
RRIRFRPPRLPRPRPRPAYKPRP | -0.314
RRIRSRPPRLPRPRPRPCNMPRP | -0.221
RRIRGRPPRLPRPRPRPPHDPRP | 1.27
RRIRNRPPRLPRPRPRPYKCPRP | -0.13
RRIRARPPRLPRPRPRPETNPRP | 1.01
RRIRKRPPRLPRPRPRPCAFPRP | 0.0922
RRIRDRPPRLPRPRPRPDTAPRP | -0.0593
RRIRWRPPRLPRPRPRPYHQPRP | -0.0735
RRIRFRPPRLPRPRPRPWMVPRP | -0.227
RRIRLRPPRLPRPRPRPMMHPRP | 0.0259
RRIRKRPPRLPRPRPRPFVQPRP | 0.034

Sequence | shrunken log2 fold change
RRIRKRPPRLPRPRPRPPTSPRP | 0.146
RRIRQRPPRLPRPRPRPSMDPRP | -0.271
RRIRGRPPRLPRPRPRPNFTPRP | 0.298
RRIRGRPPRLPRPRPRPAIFPRP | 0.583
RRIRTRPPRLPRPRPRPICNPRP | -0.00195
RRIRTRPPRLPRPRPRPCYCPRP | -0.76
RRIRRRPPRLPRPRPRPHMLPRP | -0.0594
RRIRCRPPRLPRPRPRPRIAPRP | 0.0204
RRIRLRPPRLPRPRPRPQHCPRP | -0.0642
RRIRFRPPRLPRPRPRPKKTPRP | 0.0466
RRIRRRPPRLPRPRPRPQEHPRP | 1.34
RRIRMRPPRLPRPRPRPIPEPRP | -0.0403
RRIRYRPPRLPRPRPRPILTPRP | -1.08
RRIRHRPPRLPRPRPRPFHLPRP | -0.438
RRIRKRPPRLPRPRPRPELEPRP | 0.0875
RRIRPRPPRLPRPRPRPCIEPRP | -0.291
RRIRFRPPRLPRPRPRPKMFPRP | -0.323
RRIRLRPPRLPRPRPRPYVDPRP | -0.0393
RRIRSRPPRLPRPRPRPPMQPRP | 0.268
RRIRVRPPRLPRPRPRPRPTPRP | 0.268

Sequence | shrunken log2 fold change
RRIRQRPPRLPRPRPRPPVMPRP | -0.285
RRIRIRPPRLPRPRPRPQQWPRP | -0.421
RRIRKRPPRLPRPRPRPDLPPRP | 0.222
RRIRGRPPRLPRPRPRPGSPPRP | 0.469
RRIRYRPPRLPRPRPRPYFCPRP | -1.09
RRIRCRPPRLPRPRPRPMNRPRP | -0.35
RRIRDRPPRLPRPRPRPSRCPRP | 0.346
RRIRHRPPRLPRPRPRPQSVPRP | -0.267
RRIRARPPRLPRPRPRPNISPRP | 0.0983
RRIRHRPPRLPRPRPRPPQPPRP | 0.216
RRIRYRPPRLPRPRPRPKPMPRP | 0.0517
RRIRWRPPRLPRPRPRPDCQPRP | -0.00822
RRIRLRPPRLPRPRPRPQWIPRP | -0.0288
RRIRRRPPRLPRPRPRPHIQPRP | -0.114
RRIRRRPPRLPRPRPRPCALPRP | -0.22
RRIRDRPPRLPRPRPRPGIEPRP | 0.103
RRIRFRPPRLPRPRPRPYMRPRP | 0.00487
RRIRQRPPRLPRPRPRPQLAPRP | 0.0428
RRIRYRPPRLPRPRPRPMMYPRP | -0.00674
RRIRNRPPRLPRPRPRPGFKPRP | -0.171

— the supplement of paper PMC9112550, “Optimization of the antimicrobial peptide Bac7 by deep mutational scanning” (BMC Biology, 2022)
